B1: Refmab #2 (antibody, V domains shown)
VH: QVQLVQSGAEVKKPGSSVKVSCKASGGTFSDYAISWVRQAPGQGLEWMGRIIPILGVADYAQKFQGRVTITADKSTRTAYMELSSLRSEDTAVYYCARNWADAFDIWGQGTMVTVSS
VL: DIQLTQSPSSLSASVGDRVTITCRASQGISSVLAWYQQKPGKAPKLLIYDASSLESGVPSRFSGSGSGTDFTLTISSLQPEDFATYYCQQFDSSITFGQGTKLEIK
notes: In the alanine scan antibodies were used as IgG or Fab
B2: Refmab #1 (antibody, V domains shown)
VH: EVQLVQSGAEVKKPGSSVKVSCKASGYTITDSNIHWVRQAPGQSLEWIGYIYPYNGGTDYNQKFKNRATLTVDNPTNTAYMELSSLRSEDTAFYYCVNGNPWLAYWGQGTLVTVSS
VL: DIQLTQSPSTLSASVGDRVTITCRASESLDNYGIRFLTWFQQKPGKAPKLLMYAASNQGSGVPSRFSGSGSGTEFTLTISSLQPDDFATYYCQQTKEVPWSFGQGTKVEVK
notes: In the alanine scan antibodies were used as IgG or Fab; also called hP67.6
B3: Refmab #3 (antibody, V domains shown)
VH: QVQLVQSGAEVKKPGSSVKVSCKASGYTFTDYNMHWVRQAPGQGLEWIGYIYPYNGGTGYNQKFKSKATITADESTNTAYMELSSLRSEDTAVYYCARGRPAMDYWGQGTLVTVSS
VL: DIQMTQSPSSLSASVGDRVTITCRASESVDNYGISFMNWFQQKPGKAPKLLIYAASNQGSGVPSRFSGSGSGTDFTLTISSLQPDDFATYYCQQSKEVPWTFGQGTKVEIK
notes: as for B1

Target: human CD33 N230A (human, UniProt P20138 18-364)
Test: alanine scan, flow cytometry, HEK293-T;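 also: antibody binding to each alanine-substituted CD33 mutant expressed transiently in HEK293-T, read as fluorescence minus background, mean of duplicates, relative to wild-type CD33 set as 100%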
Procedure: (§1) An alanine scan on human CD33 was performed to the determine the residues on CD33 that are involved in binding to the antibodies investigated. […] Briefly, a mutation library of CD33 was created by high-throughput, site-directed mutagenesis. Each residue was individually mutated to alanine, with alanine codons mutated to serine. The mutant library was arrayed in 384-well microplates and transiently transfected into HEK293-T. Following transfection, cells were incubated with the indicated antibodies (IgG or Fab) at concentrations pre-determined using an independent immunofluorescence titration curve on wild type CD33. […] Binding of each antibody to each mutant clone was determined in duplicates. For each point, background fluorescence was subtracted from the raw data, which were then normalized to antibody reactivity with wild type CD33.
(§2) Critical residues for antibody binding (outlined in dark grey) were residues whose mutations led to a binding of the test Abs of less than 20%. Additional secondary residues (outlined in light grey) were identified that led to a binding of the test Abs of between 20 and 40% as compared to the wild type CD33.

Chain of human CD33 N230A (P20138 18-364 N230A limits assumed): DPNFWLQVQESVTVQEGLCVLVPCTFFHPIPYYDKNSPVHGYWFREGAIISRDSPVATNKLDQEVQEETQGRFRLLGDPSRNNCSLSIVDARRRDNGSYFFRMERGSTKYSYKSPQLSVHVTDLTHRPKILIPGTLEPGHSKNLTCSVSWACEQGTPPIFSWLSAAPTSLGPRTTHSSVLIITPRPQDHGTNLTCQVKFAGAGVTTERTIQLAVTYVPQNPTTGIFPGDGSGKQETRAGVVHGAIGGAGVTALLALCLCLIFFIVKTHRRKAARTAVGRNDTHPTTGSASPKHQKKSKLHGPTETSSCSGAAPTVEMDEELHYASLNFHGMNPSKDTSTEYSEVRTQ

Binder | Mean % WT Binding [%]
B1 | 96.4
B2 | 83.6
B3 | 109

Target: human CD33 P201A (human, UniProt P20138 18-364)
Test: alanine scan, flow cytometry, HEK293-T;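 also: antibody binding to each alanine-substituted CD33 mutant expressed transiently in HEK293-T, read as fluorescence minus background, mean of duplicates, relative to wild-type CD33 set as 100%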
Procedure: as §1, §2

Chain of human CD33 P201A (P20138 18-364 P201A limits assumed): as the sequence (P20138 18-364 N230A limits assumed) above, with P184A, A213N counted along it

Binder | Mean % WT Binding [%]
B1 | 110
B2 | 85.6
B3 | 90.9

Target: human CD33 P174A (human, UniProt P20138 18-364)
Test: alanine scan, flow cytometry, HEK293-T;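 also: antibody binding to each alanine-substituted CD33 mutant expressed transiently in HEK293-T, read as fluorescence minus background, mean of duplicates, relative to wild-type CD33 set as 100%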
Procedure: as §1, §2

Chain of human CD33 P174A (P20138 18-364 P174A limits assumed): as the sequence (P20138 18-364 N230A limits assumed) above, with P157A, A213N counted along it

Binder | Mean % WT Binding [%]
B1 | 117
B2 | 90.9
B3 | 110

Target: human CD33 A168S (human, UniProt P20138 18-364)
Test: alanine scan, flow cytometry, HEK293-T;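 also: antibody binding to each alanine-substituted CD33 mutant expressed transiently in HEK293-T, read as fluorescence minus background, mean of duplicates, relative to wild-type CD33 set as 100%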
Procedure: as §1, §2

Chain of human CD33 A168S (P20138 18-364 A168S limits assumed): as the sequence (P20138 18-364 N230A limits assumed) above, with A151S, A213N counted along it

Binder | Mean % WT Binding [%]
B1 | 110
B2 | 88.4
B3 | 99.2

Target: human CD33 V231A (human, UniProt P20138 18-364)
Test: alanine scan, flow cytometry, HEK293-T
Procedure: as §1, §2

Chain of human CD33 V231A (P20138 18-364 V231A limits assumed): as the sequence (P20138 18-364 N230A limits assumed) above, with A213N, V214A counted along it

Binder | Mean % WT Binding [%]
B1 | 112
B2 | 100
B3 | 153

Target: human CD33 T232A (human, UniProt P20138 18-364)
Test: alanine scan, flow cytometry, HEK293-T
Procedure: as §1, §2

Chain of human CD33 T232A (P20138 18-364 T232A limits assumed): as the sequence (P20138 18-364 N230A limits assumed) above, with A213N, T215A counted along it

Binder | Mean % WT Binding [%]
B1 | 84.8
B2 | 76.6
B3 | 127

Target: human CD33 A183S (human, UniProt P20138 18-364)
Test: alanine scan, flow cytometry, HEK293-T
Procedure: as §1, §2

Chain of human CD33 A183S (P20138 18-364 A183S limits assumed): as the sequence (P20138 18-364 N230A limits assumed) above, with A166S, A213N counted along it

Binder | Mean % WT Binding [%]
B1 | 119
B2 | 85.4
B3 | 117

Target: human CD33 F177A (human, UniProt P20138 18-364)
Test: alanine scan, flow cytometry, HEK293-T
Procedure: as §1, §2

Chain of human CD33 F177A (P20138 18-364 F177A limits assumed): as the sequence (P20138 18-364 N230A limits assumed) above, with F160A, A213N counted along it

Binder | Mean % WT Binding [%]
B1 | 67.5
B2 | 68.4
B3 | 60.4

Target: human CD33 L197A (human, UniProt P20138 18-364)
Test: alanine scan, flow cytometry, HEK293-T
Procedure: as §1, §2

Chain of human CD33 L197A (P20138 18-364 L197A limits assumed): as the sequence (P20138 18-364 N230A limits assumed) above, with L180A, A213N counted along it

Binder | Mean % WT Binding [%]
B1 | 125
B2 | 95.5
B3 | 91.4

Target: human CD33 S195A (human, UniProt P20138 18-364)
Test: alanine scan, flow cytometry, HEK293-T
Procedure: as §1, §2

Chain of human CD33 S195A (P20138 18-364 S195A limits assumed): as the sequence (P20138 18-364 N230A limits assumed) above, with S178A, A213N counted along it

Binder | Mean % WT Binding [%]
B1 | 119
B2 | 86.9
B3 | 95.2

Target: human CD33 Y233A (human, UniProt P20138 18-364)
Test: alanine scan, flow cytometry, HEK293-T
Procedure: as §1, §2

Chain of human CD33 Y233A (P20138 18-364 Y233A limits assumed): as the sequence (P20138 18-364 N230A limits assumed) above, with A213N, Y216A counted along it

Binder | Mean % WT Binding [%]
B1 | 107
B2 | 115
B3 | 146

Target: human CD33 V214A (human, UniProt P20138 18-364)
Test: alanine scan, flow cytometry, HEK293-T
Procedure: as §1, §2

Chain of human CD33 V214A (P20138 18-364 V214A limits assumed): as the sequence (P20138 18-364 N230A limits assumed) above, with V197A, A213N counted along it

Binder | Mean % WT Binding [%]
B1 | 118
B2 | 80.5
B3 | 102

Target: human CD33 T173A (human, UniProt P20138 18-364)
Test: alanine scan, flow cytometry, HEK293-T
Procedure: as §1, §2

Chain of human CD33 T173A (P20138 18-364 T173A limits assumed): as the sequence (P20138 18-364 N230A limits assumed) above, with T156A, A213N counted along it

Binder | Mean % WT Binding [%]
B1 | 134
B2 | 106
B3 | 97

Target: human CD33 A219S (human, UniProt P20138 18-364)
Test: alanine scan, flow cytometry, HEK293-T
Procedure: as §1, §2

Chain of human CD33 A219S (P20138 18-364 A219S limits assumed): as the sequence (P20138 18-364 N230A limits assumed) above, with A202S, A213N counted along it

Binder | Mean % WT Binding [%]
B1 | 117
B2 | 104
B3 | 113

Target: human CD33 G207A (human, UniProt P20138 18-364)
Test: alanine scan, flow cytometry, HEK293-T
Procedure: as §1, §2

Chain of human CD33 G207A (P20138 18-364 G207A limits assumed): as the sequence (P20138 18-364 N230A limits assumed) above, with G190A, A213N counted along it

Binder | Mean % WT Binding [%]
B1 | 109
B2 | 94.1
B3 | 105

Target: human CD33 T240A (human, UniProt P20138 18-364)
Test: alanine scan, flow cytometry, HEK293-T
Procedure: as §1, §2

Chain of human CD33 T240A (P20138 18-364 T240A limits assumed): as the sequence (P20138 18-364 N230A limits assumed) above, with A213N, T223A counted along it

Binder | Mean % WT Binding [%]
B1 | 111
B2 | 111
B3 | 97.9

Reference: US20260242735A1 (UNIVERSIT T BASEL, published 2026)
